In article PMC4626089, “In Vitro Mutational Analysis of the β2 Adrenergic Receptor, an In Vivo Surrogate Odorant Receptor” (PLoS ONE, 2015):

Experiment: GFP-labeled filopodia count per OP6 cell
Settings: glycan lost; control: WT mβ2AR::GFP

With “mouse β2-adrenergic-receptor (mβ2AR): No-NxS” as the substance, how does the “localisation_or_trafficking, other: GFP-labeled filopodia per cell” value read?
Its value is “no change, 13.6 ±8.3 vs 31.8 ±16.2”.
